Patent US20240092919A1

Biological target: human GPC3 on cells (human) (UniProt P51654)
Assay: cell-based or functional assay

| Binder | IC50 (M), Incucyte human TDC HepG2-Nuclight green assay, E:T 15:1, 72 h | Max % Killing, Incucyte human TDC HepG2-Nuclight green assay, 72 h | HepG2 on Incucyte IC50 (M), human TDC, E:T 15:1, 60 h | HepG2 on Incucyte Max % killing, 60 h | Huh7 on xCELLigence IC50 (M), human TDC, E:T 15:1, 60 h | Huh7 on xCELLigence Max % killing, 60 h | IC50 (M), Incucyte human TDC HepG2-Nuclight green assay, E:T 15:1 (Step 2) | Max % Killing, Incucyte human TDC HepG2-Nuclight green assay (Step 2) |
| --- | --- | --- | --- | --- | --- | --- | --- | --- |
| A022600096 (protein) DVQLVESGGGLVQPGGSLRLSCVASGYVHKINFYGWYRQAPGKEREKVAHISIGDQTDYADSAKGRFTISRDESKNTVYLQMNSLRPEDTALYYCRALSRIWPYDYWGQGTLVTVSSGGGGSGGGGSGGGGSGGGGSGGGGSGGGGSGGGGSEVQLVESGGGLVQPGGSLRLSCVASGFTFSSFAMTWVRRPPGKGLEWVATITNGGVTSYRDSVKGRFTISRDNAKNTLYLEMTSLNPEDTAVYICANARRTGPRAPTDIGSYRGQGTLVTVSSGGGGSGGGGSGGGGSGGGGSGGGGSGGGGSGGGGSEVQLVESGGGVVQPGGSLRLSCAASGFTFRSFGMSWVRQAPGKGPEWVSSISGSGSDTLYADSVKGRFTISRDNSKNTLYLQMNSLRPEDTALYYCTIGGSLSRSSQGTLVTVSSA | 1.4e-09 M | 72% | – | – | – | – | – | – |
| A022600105 (protein) DVQLVESGGGVVQPGGSLRLSCVASGYVHKINFYGWYRQAPGKEREKVAHISIGDQTDYADSAKGRFTISRDESKNTVYLQMNSLRPEDTALYYCRALSRIWPYDYWGQGTLVTVSSGGGGSGGGGSGGGGSGGGGSEVQLVESGGGLVQPGGSLRLSCVASGFTFSSFAMTWVRRPPGKGLEWVATITNGGVTSYRDSVKGRFTISRDNAKNTLYLEMTSLNPEDTAVYICANARRTGPRAPTDIGSYRGQGTLVTVSSGGGGSGGGGSGGGGSGGGGSGGGGSGGGGSGGGGSEVQLVESGGGVVQPGGSLRLSCAASGFTFRSFGMSWVRQAPGKGPEWVSSISGSGSDTLYADSVKGRFTISRDNSKNTLYLQMNSLRPEDTALYYCTIGGSLSRSSQGTLVTVSSA | 2.14e-09 M | 85% | – | – | – | – | – | – |
| A022600104 (protein) DVQLVESGGGVVQPGGSLRLSCVASGYVHKINFYGWYRQAPGKEREKVAHISIGDQTDYADSAKGRFTISRDESKNTVYLQMNSLRPEDTALYYCRALSRIWPYDYWGQGTLVTVSSGGGGSGGGSEVQLVESGGGLVQPGGSLRLSCVASGFTFSSFAMTWVRRPPGKGLEWVATITNGGVTSYRDSVKGRFTISRDNAKNTLYLEMTSLNPEDTAVYICANARRTGPRAPTDIGSYRGQGTLVTVSSGGGGSGGGGSGGGGSGGGGSGGGGSGGGGSGGGGSEVQLVESGGGVVQPGGSLRLSCAASGFTFRSFGMSWVRQAPGKGPEWVSSISGSGSDTLYADSVKGRFTISRDNSKNTLYLQMNSLRPEDTALYYCTIGGSLSRSSQGTLVTVSSA | 2.13e-09 M | 90% | – | – | – | – | – | – |
| A022600103 (protein) DVQLVESGGGVVQPGGSLRLSCVASGYVHKINFYGWYRQAPGKEREKVAHISIGDQTDYADSAKGRFTISRDESKNTVYLQMNSLRPEDTALYYCRALSRIWPYDYWGQGTLVTVSSGGGGSEVQLVESGGGLVQPGGSLRLSCVASGFTFSSFAMTWVRRPPGKGLEWVATITNGGVTSYRDSVKGRFTISRDNAKNTLYLEMTSLNPEDTAVYICANARRTGPRAPTDIGSYRGQGTLVTVSSGGGGSGGGGSGGGGSGGGGSGGGGSGGGGSGGGGSEVQLVESGGGVVQPGGSLRLSCAASGFTFRSFGMSWVRQAPGKGPEWVSSISGSGSDTLYADSVKGRFTISRDNSKNTLYLQMNSLRPEDTALYYCTIGGSLSRSSQGTLVTVSSA | 2.04e-09 M | 92% | 1.23e-09 M | 96% | 7.11e-09 M | 71% | 5.43e-10 M | 90% |
